Test results from the Immune Epitope Database (IEDB).

Key:
HLA-A*01:01 = assay: IEDB peptide-MHC binding, purified MHC/direct/fluorescence; filed as Kd, often an IC50 or EC50 that approximates it; ≥ and ≤ were set here for values at or beyond the usual limits of such assays
HLA-A*80:01 = assay: as above
HLA-A*31:01 = assay: as above
HLA-A*11:01 = assay: as above
HLA-B*15:01 = assay: as above
HLA-B*58:01 = assay: as above
HLA-A*26:01 = assay: as above; settings: source organism: Vibrio vulnificus YJ016
HLA-B*15:17 = assay: as above; settings: source organism: Vibrio vulnificus YJ016
HLA-B*48:01 = assay: as above; settings: source organism: Vibrio vulnificus YJ016
HLA-B*57:01 = assay: as above; settings: source organism: Vibrio vulnificus YJ016
HLA-B*38:01 = assay: as above; settings: source organism: Vibrio vulnificus YJ016
HLA-A*03:01 = assay: as above
HLA-B*40:01 = assay: as above
HLA-B*46:01 = assay: as above; settings: source organism: Vibrio vulnificus YJ016
HLA-B*15:09 = assay: as above; settings: source organism: Vibrio vulnificus YJ016
HLA-B*27:05 = assay: as above
HLA-A*02:06 = assay: IEDB peptide-MHC binding, purified MHC/competitive/fluorescence; filed as Kd, often an IC50 or EC50 that approximates it; ≥ and ≤ were set here for values at or beyond the usual limits of such assays; settings: source organism: Vibrio vulnificus YJ016
HLA-A*30:01 = assay: as above; settings: source organism: Vibrio vulnificus YJ016
HLA-B*08:01 = assay: as above; settings: source organism: Vibrio vulnificus YJ016
HLA-A*69:01 [1] = assay: as above; settings: source organism: Vibrio vulnificus YJ016
HLA-B*18:01 [2] = assay: as above; settings: source organism: Vibrio vulnificus YJ016
HLA-A*02:01 [3] = assay: as above; settings: source organism: Vibrio vulnificus YJ016
HLA-B*39:01 = assay: as above; settings: source organism: Vibrio vulnificus YJ016
HLA-B*07:02 = assay: IEDB peptide-MHC binding, purified MHC/direct/fluorescence; filed as Kd, often an IC50 or EC50 that approximates it; ≥ and ≤ were set here for values at or beyond the usual limits of such assays; settings: source organism: Escherichia coli O157:H7
HLA-A*24:02 = assay: as above; settings: source organism: Escherichia coli O157:H7
HLA-A*69:01 [4] = assay: as above; settings: source organism: Escherichia coli O157:H7
HLA-B*18:01 [5] = assay: as above; settings: source organism: Escherichia coli O157:H7
HLA-B*44:02 = assay: as above; settings: source organism: Escherichia coli O157:H7
HLA-A*02:01 [6] = assay: as above
HLA-A*02:50 = assay: IEDB peptide-MHC binding, purified MHC/competitive/fluorescence; filed as Kd, often an IC50 or EC50 that approximates it; ≥ and ≤ were set here for values at or beyond the usual limits of such assays; settings: source organism: Shigella boydii CDC 3083-94
HLA-A*02:11 = assay: IEDB peptide-MHC binding, purified MHC/direct/fluorescence; filed as Kd, often an IC50 or EC50 that approximates it; ≥ and ≤ were set here for values at or beyond the usual limits of such assays; settings: source organism: Amur virus Solovey/AP63/1999
HLA-A*02:12 = assay: as above; settings: source organism: Amur virus Solovey/AP63/1999
HLA-C*07:02 = assay: as above; settings: source organism: Hantaan virus 76-118
[7] = source organism: Burkholderia mallei
[8] = source organism: Vibrio vulnificus YJ016
[9] = source organism: Escherichia coli O157:H7
[10] = source organism: Francisella tularensis subsp. holarctica LVS

ALRRRTGTR was tested, and the Kd (HLA-A*01:01; [7]) was at least 20 µM and the Kd (HLA-A*80:01; [7]) was at least 20 µM.
Work on EPADHLAIM yielded a Kd (HLA-A*31:01; [8]) of at least 20 µM, a Kd (HLA-A*11:01; [8]) of at least 20 µM and a Kd (HLA-B*15:01; [8]) of at least 20 µM. For the same sequence, the Kd (HLA-B*58:01; [8]) was at least 20 µM, the Kd (HLA-A*01:01; [8]) was at least 20 µM and the Kd (HLA-A*26:01) was 0.047 µM. For the same sequence, the Kd (HLA-B*15:17) was at least 20 µM, the Kd (HLA-B*48:01) was at least 20 µM and the Kd (HLA-B*57:01) was at least 20 µM. For the same sequence, the Kd (HLA-B*38:01) was at least 20 µM, the Kd (HLA-A*03:01; [8]) was at least 20 µM and the Kd (HLA-B*40:01; [8]) was at least 20 µM. The Kd (HLA-B*46:01) was at least 20 µM, the Kd (HLA-B*15:09) was at least 20 µM and the Kd (HLA-B*27:05; [8]) was at least 20 µM. The Kd (HLA-A*02:06) was at least 20 µM, the Kd (HLA-A*30:01) was at least 20 µM and the Kd (HLA-B*08:01) was at least 20 µM. For the same sequence, the Kd (HLA-A*69:01 [1]) was at least 20 µM, the Kd (HLA-B*18:01 [2]) was 3 µM and the Kd (HLA-A*02:01 [3]) was 0.691 µM. It also gave a Kd (HLA-B*39:01) of 1.21 µM.
Sequence GMAEDLQSL has a Kd (HLA-A*31:01; [9]) of at least 20 µM, a Kd (HLA-A*11:01; [9]) of at least 20 µM and a Kd (HLA-B*15:01; [9]) of 0.39 µM. It also gave a Kd (HLA-B*58:01; [9]) of at least 20 µM, a Kd (HLA-A*01:01; [9]) of at least 20 µM and a Kd (HLA-B*07:02) of at least 20 µM. It also gave a Kd (HLA-A*03:01; [9]) of at least 20 µM, a Kd (HLA-A*24:02) of at least 20 µM and a Kd (HLA-B*40:01; [9]) of at least 20 µM. The Kd (HLA-A*69:01 [4]) was 1 µM, the Kd (HLA-B*18:01 [5]) was at least 20 µM and the Kd (HLA-B*44:02) was at least 20 µM. The Kd (HLA-A*02:01 [6]; [9]) was 0.0657 µM, the Kd (HLA-B*27:05; [9]) was at least 20 µM and the Kd (HLA-A*02:50) was at most 0.0001 µM.
LTDKSGSEY was tested, and the Kd (HLA-A*01:01; [10]) was 0.0012 µM and the Kd (HLA-A*80:01; [10]) was 0.29 µM.
For SMLSYGNVL, the Kd (HLA-A*02:11) was 0.003 µM, the Kd (HLA-A*02:01 [6]; source organism: Amur virus) was at most 0.001 µM and the Kd (HLA-A*02:12) was 0.075 µM. It also gave a Kd (HLA-C*07:02) of 0.614 µM.
